Measured values taken from US11572394B2, “Peptides for targeting LRP6-overexpressed cells” (PASTEUR INSTITUTE OF IRAN, priority 2020, dated 2023).

What was measured:
Type in all cases: cell-based, human
[1] = tested on: Wnt signaling pathway, HCT116 cell line; experiment: Real-time PCR of LRP6 and downstream genes of the Wnt signaling pathway; settings: treated against untreated
Procedure: (§1) In this example, the effect of exemplary peptides on the expression of LRP6 and downstream genes of the Wnt signaling pathway, such as β-catenin, cyclin D1, and C-MYC, was evaluated at transcription level using real-time PCR and at translation level using Western blotting. The Gapdh gene was used as the reference gene. The expression fold change of more than 2 times (treated cell against untreated cell) was defined as increasing expression, and cases with a fold change of 0.5 to 2 were unchanged, and cases with expression fold change less than 0.5 were considered as a reduction in expression.

[2] = tested on: Wnt signaling pathway, HUVEC cell line; experiment: as above; settings: treated against untreated
Procedure: as §1

[3] = tested on: Wnt signaling pathway, SW480 cell line; experiment: as above; settings: treated against untreated
Procedure: as §1

SW480 = experiment: Cell cycle analysis by flow cytometry (DNA content); settings: SW480, 24 hours
Procedure: (§2) In this example, the effect of exemplary peptides on the cell cycle was determined through flow cytometry and measurement of DNA content in cells. In this experiment, HCT116, SW480, and HUVEC cell lines were cultured in 24-well plates and treated with 1 mM of each exemplary peptide for 24 hours.
(§3) The cell proliferation index may be calculated by dividing the percentage of cells present in the S and G2 stages by the percentage of cells in the G1, S, and G2 stages. […] Also, the proliferation index in SW480 and HCT116 cell lines decreased after treatment with exemplary peptides (SEQ ID NOs: 1-4). On the other hand, the decrease in the proliferation index of HUVEC cells was smaller than that of SW480 and HCT116 cell lines.

HCT116 = experiment: as above; settings: HCT116, 24 hours
Procedure: as §2, §3

HUVEC = experiment: as above; settings: 24 hours
Procedure: as §2, §3

[4] = tested on: Wnt signaling pathway, HCT116 cell line; experiment: Western blotting of LRP6 and β-catenin proteins with signal densitometry; settings: HCT116, Western blot
Procedure: as §1
(§4) Also, the effect of exemplary peptides on the levels of LRP6 and β-catenin proteins in the β-catenin/Wnt signaling pathway was investigated by Western blotting. Also, each protein's relative expression was determined through signal densitometry of each Western blot band.

[5] = tested on: Wnt signaling pathway, SW480 cell line; experiment: as above; settings: SW480, Western blot
Procedure: as §1, §4

[6] = tested on: Wnt signaling pathway, HUVEC cell line; experiment: as above; settings: Western blot
Procedure: as §1
Also, the effect of exemplary peptides on the levels of LRP6 and β-catenin proteins in the β-catenin/Wnt signaling pathway was investigated by Western blotting. Also, each protein's relative expression was determined through signal densitometry of each Western blot band. FIG. 11A illustrates relative expression β-actin, β-catenin, and LRP6 in SW480, HCT116, and HUVEC cell lines, consistent with one or more exemplary embodiments of the present disclosure. Referring to FIG. 11A, the relative expressions of β-catenin and LRP6 in SW480 and HCT116 were higher than HUVEC as a normal cell.

B1: Wnt3a: Wnt3a protein, positive control of the Wnt signaling pathway (protein, UniProt P56704 19-352, looked up)
Protein Wnt-3a: SYPIWWSLAVGPQYSSLGSQPILCASIPGLVPKQLRFCRNYVEIMPSVAEGIKIGIQECQHQFRGRRWNCTTVHDSLAIFGPVLDKATRESAFVHAIASAGVAFAVTRSCAEGTAAICGCSSRHQGSPGKGWKWGGCSEDIEFGGMVSREFADARENRPDARSAMNRHNNEAGRQAIASHMHLKCKCHGLSGSCEVKTCWWSQPDFRAIGDFLKDKYDSASEMVVEKHRESRGWVETLRPRYTYFKVPTERDLVYYEASPNFCEPNPETGSFGTRDRTCNVSSHGIDGCDLLCCGRGHNARAERRREKCRCVFHWCCYVSCQECTRVYDVHTCK
higher percentage: S and G2/M stage percentage (SW480) | S and G2/M stage percentage (HCT116) | S and G2/M stage percentage (HUVEC)
did not change: expression of C-MYC gene [2] | expression of LRP6 gene [2] | expression of cyclin D1 gene [2] | expression of β-catenin gene [2]
increasing: expression of C-MYC gene [1] | expression of LRP6 gene [1] | expression of cyclin D1 gene [1] | expression of β-catenin gene [1] | expression of C-MYC gene [3] | expression of LRP6 gene [3] | expression of cyclin D1 gene [3] | expression of β-catenin gene [3]

B2: DKK1: Dickkopf-related protein 1, natural inhibitor of the Wnt signaling pathway, antagonist ligand of LRP6, negative control (protein)
chain: TLNSVLNSNAIKNLPPPLGGAAGHPGSAVSAAPGILYPGGNKYQTIDNYQPYPCAEDEECGTDEYCASPTRGGDAGVQICLACRKRRKRCMRHAMCCPGNYCKNGICVSSDQNHFRGEIEETITESFGNDHSTLDGYSRRTTLSSKMYHTKGQEGSVCLRSSDCASGLCCARHFWSKICKPVLKEGQVCTKHRRKGSHGLEIFQRCYCGEGLSCRIQKDHHQASNSSRLHTCQRH
increased: percentage of cells in the G0/G1 stage (SW480) | percentage of cells in the G0/G1 stage (HCT116) | percentage of cells in the G0/G1 stage (HUVEC)
decreased: S and G2/M stage percentage (SW480) | S and G2/M stage percentage (HCT116) | S and G2/M stage percentage (HUVEC)
did not alter: level of LRP6 protein [4] | level of LRP6 protein [5] | level of LRP6 protein [6]
